Read-outs that look alike come from different tables or passages of the source.
Experiments:
human CCR8 [1] = biological target: T1, human CCR8 (human, UniProt P51685 1-355); test: FACS, CHO-K1-hCCR8 cells
T1 construct: whole, on cells; construct used for the overexpressing cell lines is not described; also called hCCR8
Protocol: (§1) Cells overexpressing human CCR8 were digested with pancreatin, counted and resuspended to a cell density of 1E6 cells/mL. The cell suspension was added to a 96-well V-bottom plate at 100 μL/well and centrifuged at 300 g for 5 min, and the supernatant was discarded. The anti-CCR8 antibodies provided herein was used as a primary antibody and diluted in a 5-fold gradient with an FACS buffer (DPBS containing 2% FBS) from 200 nM. The diluted primary antibody was added at 100 μL/well to resuspend the cells, and the mixture was incubated at 4° C. for 1 h. The plate was washed twice with DPBS and centrifuged at 300×g for 5 min, and the supernatant was discarded. The secondary antibody diluted in a 1:1000 ratio with an FACS buffer was added at 100 μL/well to suspend the cells, and the mixture was incubated at 4° C. for 40 min. The plate was washed twice with DPBS and centrifuged at 300×g for 5 min, and the supernatant was discarded. DPBS was added at 200 μL/well to suspend the cells, and the mixture was loaded on an FACS machine for analysis.

cynomolgus monkey CCR8 = biological target: T2, cynomolgus monkey CCR8 (cynomolgus monkey, UniProt G7NYJ2 1-355); test: FACS, CHO-K1-CynoCCR8 cells
T2 construct: whole, on cells; also called CynoCCR8
Protocol: as §1, with “cynomolgus monkey CCR8, CHO-K1-CynoCCR8,” for “human CCR8”

human CCR8 [2] = biological target: T1, human CCR8; test: FACS, CHO-K1-hCCR8 cells; remark: listed apart in the source
Protocol: as §1

T2 sequence (G7NYJ2 entry or part of it): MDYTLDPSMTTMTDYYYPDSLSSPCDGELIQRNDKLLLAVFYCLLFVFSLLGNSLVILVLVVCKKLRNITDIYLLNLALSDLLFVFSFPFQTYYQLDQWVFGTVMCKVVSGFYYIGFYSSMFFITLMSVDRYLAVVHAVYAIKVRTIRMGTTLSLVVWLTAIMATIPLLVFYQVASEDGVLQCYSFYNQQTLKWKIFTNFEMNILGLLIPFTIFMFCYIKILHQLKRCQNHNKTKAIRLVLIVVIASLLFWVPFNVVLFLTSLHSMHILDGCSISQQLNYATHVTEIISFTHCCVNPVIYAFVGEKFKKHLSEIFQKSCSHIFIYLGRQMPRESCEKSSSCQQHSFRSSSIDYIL
T1 sequence (P51685 whole entry): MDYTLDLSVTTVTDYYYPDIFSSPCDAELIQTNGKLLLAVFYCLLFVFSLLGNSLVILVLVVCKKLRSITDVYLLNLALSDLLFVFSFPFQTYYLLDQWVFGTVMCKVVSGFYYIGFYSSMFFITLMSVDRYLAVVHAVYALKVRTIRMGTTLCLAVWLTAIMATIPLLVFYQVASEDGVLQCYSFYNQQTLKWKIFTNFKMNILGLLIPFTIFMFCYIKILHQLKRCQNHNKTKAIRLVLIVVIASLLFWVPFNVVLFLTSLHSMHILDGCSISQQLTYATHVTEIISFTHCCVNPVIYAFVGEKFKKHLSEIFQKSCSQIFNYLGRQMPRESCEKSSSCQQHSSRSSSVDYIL

B1: PR004524 (antibody, human IgG1, kappa, V domains shown)
VH: EVQLVESGGGLVQPGGSLKLSCAASGFTFNTYAMNWVRQASGKGLEWVGRIRSKSNNYATYYADSVKDRFTISRDDSKSTLYLQMNSLKTEDTAVYYCVRGKENGNYYAMDFWGQGTTVTVSS
VL: DIVMTQSPLSLPVTPGEPASISCRSSKSLLHSNGNTYLYWFLQKPGQSPQLLIYRMSNLASGVPDRFSGSGSGTDFTLKISRVEAEDVGVYYCMQHLEYPLTFGQGTKLEIKR
notes: humanized variant of PR004128, IgG1 with DE mutation
Human CCR8 [1]
  EC50: 0.17 nM
Cynomolgus monkey CCR8
  EC50: 4.79 nM

B2: PR004526 (antibody, human IgG1, kappa, V domains shown)
VH: EVQLVESGGGLVQPGGSLRLSCAASGFTFNTYAMNWVRQAPGKGLEWVSRIRSKSNNYATYYADSVKDRFTISRDDSKSTLYLQMNSLRAEDTAVYYCVRGKENGNYYAMDFWGQGTTVTVSS
VL: DIVMTQSPLSLPVTLGQPASISCRSSKSLLHSNGKIYLYWFQQRPGQSPRLLIYRMSNLASGVPDRFSGSGSGTDFTLKISRVEAEDVGVYYCMQHLEYPLTFGQGTKLEIKR
notes: as for B1
Human CCR8 [1]
  EC50: 1.03 nM
Cynomolgus monkey CCR8
  EC50: 4.01 nM

B3: PR004663 (antibody, human IgG1, kappa, V domains shown)
VH: EVQLVESGGGLVQPGGSLRLSCAASGFTFSTYAMNWVRQAPGKGLEWVSRIRSKSNNYATYYADSVKDRFTISRDDSKSTLYLQMNSLRAEDTAVYYCVRGKEQGNYYAMDFWGQGTTVTVSS
VL: DIVMTQSPLSLPVTPGEPASISCRSSKSLLHSNAKIYLYWFLQKPGQSPQLLIYRMSNLASGVPDRFSGSGSGTDFTLKISRVEAEDVGVYYCMQHLEYPLTFGQGTKLEIKR
notes: PTM site-removed humanized variant of PR004128, IgG1 with DE mutation
Human CCR8 [2]
  EC50: 0.286 nM

B4: PR004662 (antibody, human IgG1, kappa, V domains shown)
VH: EVQLVESGGGLVQPGGSLRLSCAASGFTFSTYAMNWVRQAPGKGLEWVSRIRSKSNNYATYYADSVKDRFTISRDDSKSTLYLQMNSLRAEDTAVYYCVRGKENANYYAMDFWGQGTTVTVSS
VL: DIVMTQSPLSLPVTPGEPASISCRSSKSLLHSNAKIYLYWFLQKPGQSPQLLIYRMSNLASGVPDRFSGSGSGTDFTLKISRVEAEDVGVYYCMQHLEYPLTFGQGTKLEIKR
notes: as for B3
Human CCR8 [2]
  EC50: 0.681 nM

B5: PR004660 (antibody, human IgG1, kappa, V domains shown)
VH: EVQLVESGGGLVQPGGSLRLSCAASGFTFSTYAMNWVRQAPGKGLEWVSRIRSKSNNYATYYADSVKDRFTISRDDSKSTLYLQMNSLRAEDTAVYYCVRGKENANYYAMDFWGQGTTVTVSS
VL: DIVMTQSPLSLPVTPGEPASISCRSSKSLLHSNGKIYLYWFLQKPGQSPQLLIYRMSNLASGVPDRFSGSGSGTDFTLKISRVEAEDVGVYYCMQHLEYPLTFGQGTKLEIKR
notes: as for B3
Human CCR8 [2]
  EC50: 0.49 nM

B6: PR004525 (antibody, human IgG1, kappa)
heavy: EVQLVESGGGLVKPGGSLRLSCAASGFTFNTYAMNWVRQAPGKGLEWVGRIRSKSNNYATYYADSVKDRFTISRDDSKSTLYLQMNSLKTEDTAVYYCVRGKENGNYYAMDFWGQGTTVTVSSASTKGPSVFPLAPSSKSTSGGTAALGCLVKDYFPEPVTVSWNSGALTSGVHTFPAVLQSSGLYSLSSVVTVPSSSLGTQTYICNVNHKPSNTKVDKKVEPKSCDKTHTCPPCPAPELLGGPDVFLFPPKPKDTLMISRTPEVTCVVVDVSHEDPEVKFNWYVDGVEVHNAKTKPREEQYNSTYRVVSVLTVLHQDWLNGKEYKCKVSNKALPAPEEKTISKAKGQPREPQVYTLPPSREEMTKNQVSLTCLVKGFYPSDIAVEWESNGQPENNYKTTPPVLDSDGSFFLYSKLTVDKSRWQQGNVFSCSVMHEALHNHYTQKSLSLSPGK
light: DIVMTQSPLSLPVTLGQPASISCRSSKSLLHSNGKIYLYWFQQRPGQSPRLLIYRMSNLASGVPDRFSGSGSGTDFTLKISRVEAEDVGVYYCMQHLEYPLTFGQGTKLEIKRTVAAPSVFIFPPSDEQLKSGTASVVCLLNNFYPREAKVQWKVDNALQSGNSQESVTEQDSKDSTYSLSSTLTLSKADYEKHKVYACEVTHQGLSSPVTKSFNRGEC
notes: as for B1
Human CCR8 [1]
  EC50: 0.85 nM
Cynomolgus monkey CCR8
  EC50: 6.21 nM

B7: PR004527 (antibody, human IgG1, kappa, V domains shown)
VH: EVQLVESGGGLVQPGGSLKLSCAASGFTFNTYAMNWVRQASGKGLEWVGRIRSKSNNYATYYADSVKDRFTISRDDSKSTLYLQMNSLKTEDTAVYYCVRGKENGNYYAMDFWGQGTTVTVSS
VL: DIVMTQSPLSLPVTLGQPASISCRSSKSLLHSNGKIYLYWFQQRPGQSPRLLIYRMSNLASGVPDRFSGSGSGTDFTLKISRVEAEDVGVYYCMQHLEYPLTFGQGTKLEIKR
notes: as for B1
Human CCR8 [1]
  EC50: 0.73 nM
Cynomolgus monkey CCR8
  EC50: 7.33 nM

B8: PR004661 (antibody, human IgG1, kappa, V domains shown)
VH: EVQLVESGGGLVQPGGSLRLSCAASGFTFSTYAMNWVRQAPGKGLEWVSRIRSKSNNYATYYADSVKDRFTISRDDSKSTLYLQMNSLRAEDTAVYYCVRGKEQGNYYAMDFWGQGTTVTVSS
VL: DIVMTQSPLSLPVTPGEPASISCRSSKSLLHSNGKIYLYWFLQKPGQSPQLLIYRMSNLASGVPDRFSGSGSGTDFTLKISRVEAEDVGVYYCMQHLEYPLTFGQGTKLEIKR
notes: as for B3
Human CCR8 [2]
  EC50: 0.456 nM

Reference: patent US20240132603A1 (HARBOUR BIOMED US, published 2024)
